# Data as given in US20250320281A1.
# Legend:
# [1] = target: HIV-1 SF162 Env on pseudotyped virus (HIV-1 isolate SF162); assay: cell-based or functional assay
# [2] = target: HIV-1 IAVI_C22 Env on pseudotyped virus (HIV-1 isolate IAVI_C22); assay: cell-based or functional assay
# [3] = target: HIV-1 92BR020 Env on pseudotyped virus (HIV-1 isolate 92BR020); assay: cell-based or functional assay
# [4] = target: HIV-1 ADA Env (HIV-1 ADA); assay: cell-based or functional assay
# [5] = target: aMLV envelope on pseudotyped virus (negative control) (aMLV); assay: cell-based or functional assay
# [6] = target: HIV-1 Env of isolate MGRM-AG-013 (HIV-1); assay: cell-based or functional assay
# [7] = target: HIV-1 envelope glycoprotein (Env) of isolate JR-FL (HIV-1); assay: cell-based or functional assay
# [8] = target: HIV-1 envelope glycoprotein (Env) of isolate MGRM-Chronic-B-003 (HIV-1); assay: cell-based or functional assay
# [9] = target: HIV-1 Env of isolate 92WR009 (subtype A) (HIV-1); assay: cell-based or functional assay
# [10] = target: HIV-1 envelope glycoprotein (Env) of isolate MGRM-Chronic-B-008 (HIV-1); assay: cell-based or functional assay
# [11] = target: HIV-1 envelope glycoprotein (Env) of isolate CAAN.A2 (HIV-1); assay: cell-based or functional assay
# [12] = target: HIV-1 Env of isolate 92UG031 (subtype A) (HIV-1); assay: cell-based or functional assay
# [13] = target: HIV-1 Env of isolate 92RW008 (subtype A) (HIV-1); assay: cell-based or functional assay
# [14] = target: JR-FL gp120 ΔV3 (HIV-1); assay: ELISA, antigen-coated wells
# [15] = target: HIV-1 MGRM-C-028 envelope glycoprotein (Env) on pseudovirus (HIV-1); assay: cell-based or functional assay
# [16] = target: HIV-1 APV6 envelope glycoprotein (Env) on pseudovirus (HIV-1); assay: cell-based or functional assay
# [17] = target: HIV-1 MGRM-A-010 envelope glycoprotein (Env) on pseudovirus (HIV-1); assay: cell-based or functional assay
# [18] = target: HIV-1 APV17 envelope glycoprotein (Env) on pseudovirus (HIV-1); assay: cell-based or functional assay
# [19] = target: HIV-1 MGRM-C-026 envelope glycoprotein (Env) on pseudovirus (HIV-1); assay: cell-based or functional assay
# Sequence of 1443_C16 (PG16) (TCN-116) (antibody) (VH): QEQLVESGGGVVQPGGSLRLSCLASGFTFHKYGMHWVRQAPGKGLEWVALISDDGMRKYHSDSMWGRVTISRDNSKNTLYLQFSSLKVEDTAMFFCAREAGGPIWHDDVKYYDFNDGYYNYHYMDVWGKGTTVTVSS
# Sequence of 1443_C16 (PG16) (TCN-116) (antibody) (VL): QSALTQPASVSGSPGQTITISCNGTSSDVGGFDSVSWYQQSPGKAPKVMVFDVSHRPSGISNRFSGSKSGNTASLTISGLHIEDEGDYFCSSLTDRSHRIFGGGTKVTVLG
# Sequence of 4993_K13 (PGT-141) (antibody) (VH): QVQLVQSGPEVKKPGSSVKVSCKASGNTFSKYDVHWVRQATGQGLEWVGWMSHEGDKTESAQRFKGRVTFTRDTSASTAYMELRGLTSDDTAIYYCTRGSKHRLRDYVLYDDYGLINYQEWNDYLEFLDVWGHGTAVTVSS
# Sequence of 4993_K13 (PGT-141) (antibody) (VL): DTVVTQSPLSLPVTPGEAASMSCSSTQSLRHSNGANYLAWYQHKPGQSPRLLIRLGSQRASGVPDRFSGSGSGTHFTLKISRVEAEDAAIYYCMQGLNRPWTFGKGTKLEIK
# Sequence of 4980_N08 (PGT-143) (antibody) (VH): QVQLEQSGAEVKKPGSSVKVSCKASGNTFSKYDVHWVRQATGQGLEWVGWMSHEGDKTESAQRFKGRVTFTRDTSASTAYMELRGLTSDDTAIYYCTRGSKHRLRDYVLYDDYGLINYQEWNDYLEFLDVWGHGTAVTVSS
# Sequence of 4980_N08 (PGT-143) (antibody) (VL): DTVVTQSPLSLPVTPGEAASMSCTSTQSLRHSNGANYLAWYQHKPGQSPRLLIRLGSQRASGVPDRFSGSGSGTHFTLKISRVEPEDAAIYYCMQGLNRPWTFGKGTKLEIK
# Sequence of 5345_I01 (PGT-137) (antibody) (VH): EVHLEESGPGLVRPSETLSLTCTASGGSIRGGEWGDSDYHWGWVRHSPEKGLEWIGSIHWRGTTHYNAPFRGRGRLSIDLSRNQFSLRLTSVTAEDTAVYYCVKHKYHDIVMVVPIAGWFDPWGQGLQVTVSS
# Sequence of 5345_I01 (PGT-137) (antibody) (VL): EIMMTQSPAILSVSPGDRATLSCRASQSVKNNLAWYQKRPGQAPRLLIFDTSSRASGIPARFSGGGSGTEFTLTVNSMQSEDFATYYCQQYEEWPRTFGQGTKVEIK
substance,measurement,setting,value
1443_C16 (PG16) (TCN-116) (antibody),Neutralizing Antibody Assay: IC50; Virus/Ab Incubation 1 hour,[1],> 50 µg/mL
same,Neutralizing Antibody Assay: IC50; Virus/Ab Incubation 18 hour,[1],> 50 µg/mL
same,Neutralizing Antibody Assay: IC50; Virus/Ab Incubation 1 hour,[2],0.114 µg/mL
same,Neutralizing Antibody Assay: IC50; Virus/Ab Incubation 18 hour,[2],0.106 µg/mL
same,Neutralizing Antibody Assay: IC50; Virus/Ab Incubation 1 hour,[3],> 50 µg/mL
same,Neutralizing Antibody Assay: IC50; Virus/Ab Incubation 18 hour,[3],> 50 µg/mL
same,"IC50 (ug/ml), pseudovirus neutralization, TZM-bl assay",[4],0.004 µg/mL
same,Neutralizing Antibody Assay: IC50; Virus/Ab Incubation 1 hour,[5],> 50 µg/mL
same,Neutralizing Antibody Assay: IC50; Virus/Ab Incubation 18 hour,[5],> 50 µg/mL
5123_A06 (PGT-125) (antibody),IC50,[6],0.004 µg/mL
4993_K13 (PGT-141) (antibody),"IC50 (µg/mL), pseudovirus neutralization",[7],> 50 µg/mL
same,"IC50 (µg/mL), pseudovirus neutralization",[8],0.4 µg/mL
same,"IC50 (µg/mL), pseudovirus neutralization",[9],0.022 µg/mL
same,"IC50 (µg/mL), pseudovirus neutralization",[10],> 50 µg/mL
same,"IC50 (µg/mL), pseudovirus neutralization",[11],> 50 µg/mL
same,"IC50 (µg/mL), pseudovirus neutralization",[12],0.093 µg/mL
same,"IC50 (µg/mL), pseudovirus neutralization",[13],0.579 µg/mL
4838_L06 (PGT-121) (antibody),EC50,[14],> 10 µg/mL
5141_B17 (PGT-126) (antibody),"IC50, pseudovirus neutralization",[15],0.283 µg/mL
same,IC80 (pseudovirus neutralization),[15],2.62 µg/mL
same,IC90 (pseudovirus neutralization),[15],> 10 µg/mL
same,IC95 (pseudovirus neutralization),[15],> 10 µg/mL
same,"IC50, pseudovirus neutralization",[16],0.0249 µg/mL
same,IC80 (pseudovirus neutralization),[16],0.0681 µg/mL
same,IC90 (pseudovirus neutralization),[16],0.123 µg/mL
same,IC95 (pseudovirus neutralization),[16],0.213 µg/mL
same,"IC50, pseudovirus neutralization",[17],0.0033 µg/mL
same,IC80 (pseudovirus neutralization),[17],0.0137 µg/mL
same,IC90 (pseudovirus neutralization),[17],0.0316 µg/mL
same,IC95 (pseudovirus neutralization),[17],0.0687 µg/mL
same,IC50,[6],0.008 µg/mL
same,"IC50, pseudovirus neutralization",[18],0.501 µg/mL
same,IC80 (pseudovirus neutralization),[18],4.43 µg/mL
same,IC90 (pseudovirus neutralization),[18],> 10 µg/mL
same,IC95 (pseudovirus neutralization),[18],> 10 µg/mL
same,"IC50, pseudovirus neutralization",[19],0.0076 µg/mL
same,IC80 (pseudovirus neutralization),[19],0.0345 µg/mL
same,IC90 (pseudovirus neutralization),[19],0.0831 µg/mL
same,IC95 (pseudovirus neutralization),[19],0.185 µg/mL
5145_B14 (PGT-127) (antibody),IC50,[6],0.018 µg/mL
5343_B08 (PGT-135) (antibody),EC50,[14],0.2 µg/mL
5345_I01 (PGT-137) (antibody),EC50,[14],0.1 µg/mL
4980_N08 (PGT-143) (antibody),"IC50 (µg/mL), pseudovirus neutralization",[7],> 50 µg/mL
same,"IC50 (µg/mL), pseudovirus neutralization",[8],0.854 µg/mL
same,"IC50 (µg/mL), pseudovirus neutralization",[9],0.01 µg/mL
same,"IC50 (µg/mL), pseudovirus neutralization",[10],> 50 µg/mL
same,"IC50 (µg/mL), pseudovirus neutralization",[11],> 50 µg/mL
same,"IC50 (µg/mL), pseudovirus neutralization",[12],0.095 µg/mL
same,"IC50 (µg/mL), pseudovirus neutralization",[13],0.385 µg/mL
